To fix the notation:
B1: clone C2G1 (MS502 light chain variable region mutation antibody) (antibody, V domains shown)
VH: EVQLLESGGGLVQPGGSLRLSCAASGFTFSNYAMSWVRQAPGKGLEWVSGIPPDSGSKYYADSVRGRFTVSRDNSKNTLYLQMNSLRAEDTAVYYCAKNMLSFDYWGQGTLVTVSS
VL: QSVLTQPPSASGTPGQRVTISCTGSSSNIGPNAVSWYQQLPGTAPKLLIYYNSKRPSGVPDRFSGSKSGTSASLAISGLRSEDEADYYCGSWDSSLSGYVFGGGTKVTVLG
notes: SPR done with IgG (human IgG1 heavy constant region)
B2: clone C3C8 (MS502 light chain variable region mutation antibody) (antibody, V domains shown)
VH: EVQLLESGGGLVQPGGSLRLSCAASGFTFSNYAMSWVRQAPGKGLEWVSGIPPDSGSKYYADSVRGRFTVSRDNSKNTLYLQMNSLRAEDTAVYYCAKNMLSFDYWGQGTLVTVSS
VL: QSVLTQPPSASGTPGQRVTISCTGSSSNIGPNAVSWYQQLPGTAPKLLIYYNSKRPSGVPDRFSGSKSGTSASLAISGLRSEDEADYYCGSWDSDLRGYVFGGGTKVTVLG
notes: as for B1
B3: clone C2G4 (MS502 light chain variable region mutation antibody) (antibody, V domains shown)
VH: EVQLLESGGGLVQPGGSLRLSCAASGFTFSNYAMSWVRQAPGKGLEWVSGIPPDSGSKYYADSVRGRFTVSRDNSKNTLYLQMNSLRAEDTAVYYCAKNMLSFDYWGQGTLVTVSS
VL: QSVLTQPPSASGTPGQRVTISCTGSSSNIGSNAVSWYQQLPGTAPKLLIYYNSKRPSGVPDRFSGSKSGTSASLAISGLRSEDEADYYCGSWDPSLNGYVFGGGTKVTVLG
notes: as for B1

The target of this assay is T1, recombinant human mesothelin (MSLN) (human, UniProt Q13421 296-580, limits assumed).
T1 construct: also called human MSLN; recombinant human MSLN
T1 sequence (Q13421 other isoform, or with tags, fused parts or gaps limits assumed): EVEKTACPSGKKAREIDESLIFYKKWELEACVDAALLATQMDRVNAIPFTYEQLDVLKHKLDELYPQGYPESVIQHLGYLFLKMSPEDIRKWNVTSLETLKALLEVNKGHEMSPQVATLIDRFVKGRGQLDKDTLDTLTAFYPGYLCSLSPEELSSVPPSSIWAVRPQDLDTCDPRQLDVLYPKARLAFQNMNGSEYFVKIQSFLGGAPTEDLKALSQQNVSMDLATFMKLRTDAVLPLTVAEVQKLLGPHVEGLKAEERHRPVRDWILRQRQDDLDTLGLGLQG
As to the kind of experiment: SPR, Biacore T-200; MSLN amine-coupled to CM5 chip, IgG in flow. The procedure: Quantitative binding force (affinity) of the purified anti-MSLN antibodies, i.e., the MS502 clone light chain variable region mutation antibodies C2G1, C2G4, and C3C8 with regard to the recombinant human mesothelin (MSLN) was measured by using a Biacore T-200 (GE Healthcare, U.S.A.) biosensor. […] Then, the clone C2G1 antibody, the clone C2G4 antibody or the clone C3C8 antibody serially diluted with HBS-EP buffer (10 mM HEPES, pH7.4, 150 mM NaCl, 3 mM EDTA, 0.005% surfactant P20) was allowed to flow at a concentration range of 0.078 nM to 5 nM and at a flow rate of 30 μL/min for association of 120 seconds and dissociation of 1800 seconds. The dissociation of the antibody bound to the MSLN was induced by flowing 10 mM Glycine-HCl pH 1.5 at a flow rate of 30 μL/min for 30 seconds (Table 13). The affinity was obtained as movement speed constants (Kₒₙ and Koff) and an equilibrium dissociation constant (KD) by using a Biacore T-200 evaluation software (Table 14).
On the technique in general: SPR reads the build-up and loss of mass on a sensor chip optically.
One may read the Kd as the free concentration of one partner at which half of the binding sites on the other are occupied at equilibrium, for simple one-to-one binding. With B1, the equilibrium dissociation constant (Kd) came to 0.0939 nM.

Regarding B2, the dissociation constant Kd worked out at 0.122 nM.

As for B3, the dissociation constant (Kd) turned out to be 0.0432 nM.

These data come from patent publication US20180346588A1 (MOGAM INSTITUTE FOR BIOMEDICAL RESEARCH, published 2018).
